The values that follow come from US20230265187A1 (published 2023).

Changes are numbered by the printed parent chain.

B1: 43645p1.G5 (scFv, V domains shown)
VH: EVQLLESGGGLVQPGGSLRLSCAASGFTFSSYYMSWVRQAPGKGLEWVSAISIFSGDSTYYADSVKGRFTISRDNSKNTLYLQMNSLRAEDTAVYYCAKSHTVLQYGMDVWGQGTTVTVSS
VL: QSVLTQPPSASGTPGQRVTISCSGVTSNIRNYYVSWYQQLPGTAPKLLIYGNDQRPSGVPDRFSGSKSGTSASLAISGLQSEDEADYYCGTWDNTLNAWVFGGGTKLTVL
B2: 43586p1.1.H8 (scFv, V domains shown)
VH: EVQLLESGGGLVQPGGSLRLSCAASGFTFIDFWMSWVRQAPGKGLEWVSAISWIGDTYYYADSVKGRFTVSRDNSKNTVYLQMNSLRAEDTAVYYCAKHWTVYQYGMDVWGQGTTVTVSS
VL: QSVLTQPPSASGTPGQRVIISCSGSTSDIETKYVSWYQQLPGTAPKLLIYGNHQRPSGVPDRFSGSKSGTSASLAISGLQSEDEADYYCTAWDNTLKSWVFGGGTKLTVL
B3: 43586p1.2.C12 (scFv, V domains shown)
VH: ESGGGLVQPGGSLRLSCAASGFTFSDYLMTWVRQAPGKGLEWVSTITWDGDRTYYADSVKGRFTISRDNSKNTLYLQMNSLRAEDTAVYYCAKHWTVFQYGMDVWGQGTTVTVSS
VL: B2 VL with I19T, S25T, T26I, D28N, T31I, T90S, A91S, D93E, T95D
B4: 43586p1.2.E6 (scFv, V domains shown)
VH: EVQLLESGGGLVQPGGSLRLSCAASGFTVSDHYMSWVRQAPGKGLEWVSTTSSTSWKNYTYYADSVKGRFSISRDNSENTLYLQMNGLRAEDTAVYYCAKGSYGMDVWGQGTTVTVSS
VL: QSVLTQPPSASGTPGQRVTISCSGSNFNIGTKYLYWYQQLPGTAPKLLIYLDSQRPSGVPDRFSTSKSGTSASLAISGLQSEDEADYYCALWDDHLHGWVFGGGTKLTVL
B5: 43586p2.H02 (scFv, V domains shown)
VH: EVQLLESGGGLVQPGGSLRLSCATSGFTVSDHYVSWVRQAPGKGLEWVSTSSSTNWNDGRTYYADSVKGRFTISRDNSENTLYLQMNSLRAEDTAVYYCAKGSYGMDVWGQGTTVTVSS
VL: B4 VL with G24A, F27S, N28Y, L34F, T65G, A72V, L91F
B6: 43586p2.D01 (scFv, V domains shown)
VH: B4 VH with D31S, H32N, Y33W, T54S, K57N, S71T, E78K, G87S
VL: B4 VL with F27S, T31A, D52N, S53D, T65G, L91F, H97K
B7: 43586p2.G01 (scFv, V domains shown)
VH: B4 VH with D31S, H32N, Y33W, T54S, K57N, S71T, E78K, G87S
VL: B4 VL with F27S, T31A, D52N, S53D, Q54R, T65G, L91F, H97K
B8: 43586p2.D05 (scFv, V domains shown)
VH: EVQLLESGGGLVQPGGSLRLSCAASGFTFDDYVMSWVRQAPGKGLEWVSLINWNGDKTYYADSVKGRFTISRDNSKNTLYLQMNSLRAEDTAVYYCARHWIVFQYGLDIWGQGTTVTVSS
VL: QSVLTQPLSASGTPGQRVTISCSGVSSNIEIKYVSWYQQLPGTAPKLLIYNSHQRPSGVPDRFSGSKSGTSASLAISGLQSEDEADYYCTSWDDRLKSWVFGGGTKLTVL
B9: 43586p2.F11 (scFv, V domains shown)
VH: B8 VH with S7L, G10S, I109V
VL: B8 VL with R17K
B10: 43586p2.E08 (scFv, V domains shown)
VH: B8 VH with G10D, G66D, I109V
VL: B8 VL
B11: 43586p2.F02 (scFv, V domains shown)
VH: B8 VH with F103L, I109V
VL: B8 VL
B12: 43586p1.2.F6 (scFv, V domains shown)
VH: EVQLLESGEGLVQPGGSLRLSCAASGFTFTSYLMSWVRQAPGKGLEWVSTITWDGDRTYYADSVKGRFTISRDNSKNTLYLQMNSLRVGDTAVYYCAKHWTVFQYGMDVWGQGTTVTVSS
VL: B2 VL with P8A, I19T, S25T, T26I, D28N, T90A, A91S, D93E, T95D
notes: Tested as scFv-Fc supernatant; also called 43586p1.2.F06

As a reminder, the Kd is the equilibrium constant for the complex coming apart.

The first experiment addresses T1, human TIGIT on Jurkat cells (TIGIT/NFAT reporter Jurkat cells, BPS Bioscience #60538); Promega TIGIT Effector … (human, UniProt Q495A1 22-244).
T1 sequence (looked up): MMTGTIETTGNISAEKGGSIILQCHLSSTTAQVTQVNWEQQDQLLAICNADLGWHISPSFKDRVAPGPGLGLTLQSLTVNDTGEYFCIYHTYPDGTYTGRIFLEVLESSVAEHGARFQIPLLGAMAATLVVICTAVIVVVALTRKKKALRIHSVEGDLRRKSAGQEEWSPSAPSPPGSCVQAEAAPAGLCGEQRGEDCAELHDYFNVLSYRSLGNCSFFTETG
Briefly: cell-based or functional assay.
Consider B1, for which the “max. signal (% of 22G2)” value is 99 % of 22G2.
The same measure, in the same setting: with B2 the figure was 124 % of 22G2; with B3, 118 % of 22G2; with B4, 97 % of 22G2.
As for B5, the “max. signal (% of 22G2)” value was 80 % of 22G2.
As for B6, the “max. signal (% of 22G2)” value was 103 % of 22G2.
Same read-out and setting: with B7 the figure was 110 % of 22G2; with B8, 118 % of 22G2; with B9, 104 % of 22G2.
On to B10, for which the “max. signal (% of 22G2)” value is 117 % of 22G2.
Consider B11, for which the “max. signal (% of 22G2)” value is 92 % of 22G2.

For a further experiment, the target named is T2, his-tagged murine TIGIT (Acro Biosystems #TIT-M52E6) (murine, UniProt P86176 29-148, limits assumed).
T2 construct: Bought protein; also called mouse his-tagged TIGIT; not shown: his tag
T2 sequence (looked up): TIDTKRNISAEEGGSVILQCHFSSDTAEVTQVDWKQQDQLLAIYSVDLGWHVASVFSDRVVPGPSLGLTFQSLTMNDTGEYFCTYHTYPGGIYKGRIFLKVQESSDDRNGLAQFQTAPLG
The experiment in a line: SPR (Carterra LSA), scFv-Fc captured, His-TIGIT analyte. On the procedure:
(§1) Binding affinities of anti-TIGIT antibodies to human, cyno, and murine TIGIT were measured by Surface Plasmon Resonance (SPR) on a Carterra LSA instrument. Goat anti-human Fc antibody was amine coupled to a HC30M chip. ScFv-Fc supernatants were diluted 30-fold with HBSTE and were captured by the anti-human Fc coupled HC30M chip. A 1:2 dilution series of his-tagged human TIGIT, starting at 400 nM, was injected onto the chip for binding. A dilution series was also carried out for cyno TIGIT and murine TIGIT. Data were analyzed using the Carterra™ Kinetics software.
B3: binding was put at a Kd of 68.2 nM.
Same read-out and setting: with B4 the figure was 3.07 nM; with B5, 3.94 nM; with B6, 0.496 nM.
Molecule B7 showed a dissociation constant Kd of 1.65 nM.
Still for that read-out and setting: under B8 stands 5.46 nM.
On the same count and under the same terms, with B9 the figure was 6.23 nM; with B10, 5.79 nM.
Same read-out and setting: under B11 stands 96 nM.

The target of a further experiment is T3, His-tagged cynomolgus monkey TIGIT (Acro Biosystems #TIT-05223) (cynomolgus monkey, UniProt A0A7N9I9V4 89-209).
T3 construct: Bought protein; also called cyno TIGIT; cynomolgus TIGIT; not shown: His tag
T3 sequence (A0A7N9I9V4 entry or part of it): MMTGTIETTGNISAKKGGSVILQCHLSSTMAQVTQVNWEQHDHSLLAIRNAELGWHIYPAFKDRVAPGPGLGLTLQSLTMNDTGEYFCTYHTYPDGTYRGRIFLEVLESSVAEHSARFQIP
The description is as above. On the procedure: as §1
Turning to B2, the affinity, expressed as Kd, was 31.6 nM.
Same read-out and setting: with B3 the figure was 9.18 nM.
In the case of B12, the equilibrium dissociation constant (Kd) was 38.1 nM.
Same read-out and setting: under B4 stands 564 nM; under B5, 334 nM; under B6, 29.1 nM.
On the same count and under the same terms, with B7 the figure was 339 nM; with B8, 1.55 nM; with B9, 2.09 nM.
Molecule B10 registered a dissociation constant (Kd) of 1.83 nM.
Same read-out and setting: with B11 the figure was 14.4 nM.

The next experiment has as its target T4, his-tagged human TIGIT (Acro Biosystems #TIT-H52H3) (human, UniProt Q495A1 22-141).
T4 construct: Bought protein; also called His-tagged-TIGIT (human); not shown: his tag
T4 sequence (looked up): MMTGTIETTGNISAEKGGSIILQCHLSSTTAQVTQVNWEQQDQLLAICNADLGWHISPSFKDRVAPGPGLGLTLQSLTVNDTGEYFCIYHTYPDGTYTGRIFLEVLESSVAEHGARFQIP
The experiment is described as above. On the procedure: as §1
For the molecule B1, the Kd came to 0.0507 nM.
Regarding B2, binding was characterised by a dissociation constant (Kd) of 0.292 nM.
The molecule B3 came in with a Kd of 0.192 nM.
The same measure, in the same setting: under B12 stands 0.223 nM.
On the same count and under the same terms, under B4 stands 1.56 nM; under B5, 2.53 nM.
The same measure, in the same setting: with B6 the figure was 1.04 nM; with B7, 2.69 nM; with B8, 0.214 nM.
As to B9, binding was characterised by a dissociation constant (Kd) of 0.307 nM.
Same read-out and setting: under B10 stands 0.252 nM.
On to B11, for which binding was characterised by a dissociation constant (Kd) of 1.81 nM.

The target of the next experiment is T2, his-tagged murine TIGIT (Acro …). The experiment in a line: ELISA, coated His-TIGIT, 1 ug/ml. A general note: ELISA stands for enzyme-linked immunosorbent assay.
On to B1, for which the “Elisa OD450” value was found to be 1.01 OD450.
The same measure, in the same setting: with B2 the figure was 0.048 OD450; with B3, 2.03 OD450.
The same measure, in the same setting: with B4 the figure was 2.01 OD450; with B5, 1.93 OD450.
Still for that read-out and setting: with B6 the figure was 1.66 OD450; with B7, 1.95 OD450; with B8, 1.67 OD450.
In the case of B9, the “Elisa OD450” value stood at 1.93 OD450.
On to B10, for which the “Elisa OD450” value was 2.03 OD450.
In the case of B11, the “Elisa OD450” value worked out at 1.9 OD450.

The target of the next experiment is T3, His-tagged cynomolgus monkey TIGIT …. Briefly: ELISA, coated His-TIGIT, 1 ug/ml.
In the case of B1, the “Elisa OD450” value was 1.73 OD450.
Same read-out and setting: under B2 stands 1.25 OD450; under B3, 1.68 OD450; under B4, 0.776 OD450.
Same read-out and setting: with B5 the figure was 1.09 OD450; with B6, 1.61 OD450.
Same read-out and setting: with B7 the figure was 1.15 OD450; with B8, 1.73 OD450.
Regarding B9, the “Elisa OD450” value was determined as 1.92 OD450.
On to B10, for which the “Elisa OD450” value is 1.87 OD450.
Still for that read-out and setting: under B11 stands 1.77 OD450.

The next experiment has as its target T4, his-tagged human TIGIT (Acro Biosystems …). The experiment in a line: ELISA, coated His-TIGIT, 1 ug/ml.
Consider B1, for which the “Elisa OD450” value was 1.94 OD450.
Still for that read-out and setting: under B2 stands 1.93 OD450; under B3, 2.21 OD450.
For the molecule B4, the “Elisa OD450” value came out at 1.82 OD450.
With B5, the “Elisa OD450” value was determined as 2 OD450.
As to B6, the “Elisa OD450” value is 1.95 OD450.
On the same count and under the same terms, under B7 stands 2.03 OD450; under B8, 1.92 OD450.
As to B9, the “Elisa OD450” value was determined as 1.98 OD450.
The same measure, in the same setting: under B10 stands 1.46 OD450; under B11, 1.85 OD450.

A further experiment has as its target T1, human TIGIT on Jurkat cells (TIGIT/NFAT …). Briefly: flow cytometry, TIGIT/NFAT Jurkat cells, 10 ug/ml. On the technique in general: In flow cytometry, cells or beads pass a laser one at a time.
As to B1, the MFI was found to be 12400 MFI.
The same measure, in the same setting: with B2 the figure was 9170 MFI; with B3, 11900 MFI; with B4, 10500 MFI.
As for B5, the MFI was 9130 MFI.
As for B6, the MFI was 9990 MFI.
Still for that read-out and setting: under B7 stands 9720 MFI; under B8, 9960 MFI; under B9, 9200 MFI.
The molecule B10 gave an MFI of 11300 MFI.
As for B11, the MFI came out at 8960 MFI.

Another experiment addresses T3, His-tagged cynomolgus monkey TIGIT …. The experiment in a line: SPR (Carterra LSA), scFv-Fc captured, His-TIGIT analyte; repeat. On the procedure:
as §1
In the case of B1, the Kd was found to be 0.368 nM.
As to B2, the Kd stood at 16 nM.
Regarding B12, the affinity, expressed as Kd, was 4.6 nM.
